The target in one assay is T1, Cynomolgus IL-2Rβ (Macaca fascicularis, UniProt Q38J85).
T1 construct: corresponding to residues Ala1-Thr215 of the extracellular domains excluding the signal peptide
T1 sequence (Q38J85 26-240 limits assumed): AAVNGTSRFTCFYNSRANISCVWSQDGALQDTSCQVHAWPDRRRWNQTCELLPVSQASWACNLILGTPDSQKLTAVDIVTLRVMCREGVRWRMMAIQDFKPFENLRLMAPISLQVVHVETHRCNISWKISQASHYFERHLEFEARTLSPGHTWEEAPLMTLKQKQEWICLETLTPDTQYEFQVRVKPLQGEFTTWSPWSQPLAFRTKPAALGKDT
The assay is described as follows: SPR binding affinity to recombinant cynomolgus IL-2Rβ (Biacore). Conditions: 1:1 binding model. As to the method:
(§1) Surface plasmon resonance (SPR) was used to determine the binding affinities. The M6-1625 and M10-1275 antibodies were captured onto a Cytiva Protein A Chip for 60 seconds at 0.5 μg/mL for 60 seconds. The antibodies were exposed to recombinant human LL-2Rβ or cynomolgus LL-2Rβ (corresponding to residues Ala1-Thr215 of the extracellular domains excluding the signal peptide) at typical concentrations ranging from 0.4 nM to 11 nM with typical 300 second associations and 1200 second dissociations using a BiacoreS200 instrument. Sensorgrams were fit globally using a 1:1 binding model in the Biacore T200 Evaluation Software to calculate on- and off-rates and KD values.
Background: SPR reads the build-up and loss of mass on a sensor chip optically.

A further assay has as its target T2, Human IL-2Rβ (Homo sapiens, UniProt P14784).
T2 construct: corresponding to residues Ala1-Thr215 of the extracellular domains excluding the signal peptide
T2 sequence (P14784 26-240 limits assumed): T1 sequence (Q38J85 26-240 limits assumed) with R8Q, T67A, A75T, M84L, M93V, K128E, M159L
The experiment in a line: SPR binding affinity to recombinant human IL-2Rβ (Biacore). Conditions: 1:1 binding model. As to the method: as §1

Assay [1] deals with xenogeneic NSG(huIL-15Tg)/Hu-PBMC Graft vs. Host Disease (GvHD) model. The assay is described as follows: Xenogeneic NSG(huIL-15Tg)/Hu-PBMC GvHD model, Example 14. It is filed as in vivo, mice. Conditions: 10 mg/kg, 3 mg/kg, or 1 mg/kg intraperitoneally twice weekly for 4 weeks; FIG. 14. As to the method: A xenogeneic NSG(huIL-15Tg)/Hu-PBMC GvHD model testing the efficacy of the anti-CD122 antibody disclosed herein was performed at The Jackson laboratory JAX® In Vivo Pharmacology Services (Sacramento, CA). NOD-scidIL2rγ^null (NSG) human IL-15 transgenic mice were irradiated with 1 Gy followed by intravenous injection of human PBMCs in each mouse. APE15428 (IgG1-LALA) was dosed intraperitoneally at 10 mg/kg, 3 mg/kg, or 1 mg/kg twice weekly for 4 weeks starting the day following PBMC injection. Disease was monitored three times weekly by body weight loss, death, and GvHD scores measuring: weight loss, activity, fur texture, paleness, and posture.

In assay [2] the test system is PHA-stimulated primary human T cell blasts. The assay is described as follows: IL-2- or IL-15-induced proliferation of PHA-stimulated T cell blasts (CTG). It counts as cell-based. Conditions: IL-2 (15 pM) or IL-15 (150 pM) induced proliferation, IgG4 antibodies, compared with upadacitinib, FIG. 4. As to the method: Primary human PBMCs were isolated from whole blood donors, and stimulated in cuture for 3 days with 5 μg/mL PHA in a T75 flask. Cells were washed, counted, and plated at 100,000 cells/well in a 96-well plate. Antibodies were titrated at the concentrations indicated in FIG. 4, starting at 100 nM with 1:3 dilutions, and added to the cells. Recombinant IL-2 (15 pM) or IL-15 (150 pM) were added to the cells. Cells were cultured for an additional three days. SteadyGlo substrate was added for 10 minutes and the plates were read on the GloMax machine. Data were analyzed using Graphpad Prism software.

In a further assay the target is T3, IL-2RB (Homo sapiens, UniProt P14784).
T3 sequence (P14784 27-551): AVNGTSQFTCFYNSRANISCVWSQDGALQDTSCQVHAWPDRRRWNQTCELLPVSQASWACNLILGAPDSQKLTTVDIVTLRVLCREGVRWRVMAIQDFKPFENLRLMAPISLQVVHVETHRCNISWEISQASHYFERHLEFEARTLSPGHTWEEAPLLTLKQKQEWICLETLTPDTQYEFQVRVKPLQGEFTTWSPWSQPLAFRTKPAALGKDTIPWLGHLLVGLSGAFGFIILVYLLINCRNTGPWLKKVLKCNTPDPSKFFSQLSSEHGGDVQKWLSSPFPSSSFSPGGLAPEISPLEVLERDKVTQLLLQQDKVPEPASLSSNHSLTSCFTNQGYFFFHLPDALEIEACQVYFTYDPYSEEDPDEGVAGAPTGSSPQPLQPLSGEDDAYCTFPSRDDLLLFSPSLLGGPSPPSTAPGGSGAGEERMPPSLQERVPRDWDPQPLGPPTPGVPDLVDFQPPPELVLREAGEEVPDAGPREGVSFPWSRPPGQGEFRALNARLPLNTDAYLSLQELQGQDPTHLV
The experiment in a line: Ability to block IL-2 (SPR assay). It is filed as binding. Conditions: chimeric antibodies.

Residue numbers refer to the chain shown, from its start.

B1: APE15428: M6-p1625 series anti-CD122 antibody, VH SEQ ID NO: 69, VL SEQ ID NO: 77 (antibody, V domains shown)
VH: QVQLVQSGAEVKKPGASVKVSCKASGYTFTRFWIQWVRQAPGQGLEWMGEILPGSGSINHNEKFQGRVTMTRDTSTSTVYMELSSLRSEDTAVYYCTRHYGSFDYWGQGTTVTVSS
VL: DIQMTQSPSSLSASVGDRVTITCKASQNVGTDVAWYQQKPGKAPKSLIYSASYRYSGVPSRFSGSGSGTDFTLTISSLQPEDFATYFCHQYESYPFTFGQGTKLEIKR
modifications: IgG1 LALA Fc format
By Kd is commonly meant a measure of binding affinity in units of concentration. Turning to B1, the results for the Kd with Cynomolgus IL-2Rβ and in the assay with Human IL-2Rβ were 0.0765 nM and 0.0567 nM, respectively. In addition, the “median time to survival vs. isotype control” value in assay [1] is given as “statistically significant efficacy”.

B2: APE15295: M6-p1625 series anti-CD122 antibody, VH SEQ ID NO: 68, VL SEQ ID NO: 77 (antibody, V domains shown)
VH: B1 VH
VL: B1 VL
modifications: IgG4P format
B2: the Kd with Cynomolgus IL-2Rβ worked out at 0.0707 nM; with Human IL-2Rβ, 0.0557 nM.

B3: M6-1625: anti-CD122 IgG4 antibody of the M6-p1625 class tested in Example 4; APE number not stated (antibody, V domains shown)
VH: QVQLQQSGAELMKPGASVKISCKSTGYTFSRYWIEWVKQRPGHGLEWIGEILPGSGSINHNEKFQGKATFTADTSSNTVYMQLSSLTSEDSAVYFCTRHYGSFDYWGQGTTLTVSS
VL: EIVMTQSPKFMSTSVGDRVSVTCKASQNVGTDVAWYQQKPGQSPKALIYSASYRYNGVPDRFTGSGSGTDFTLTISNVQSEDLAEYFCHQYSSYPFTFGSGTKLEIKR
For B3, the “blocking IL-2 and IL-15” value in assay [2] is reported as “better than upadacitinib”.

B4: APE12383: M6-p1625 series anti-CD122 antibody (chimeric in Table 3), VH SEQ ID NO: 37, VL SEQ ID NO: 70 (antibody, V domains shown)
VH: B3 VH
VL: B3 VL
As for B4, the “Blocking (IL-2 down)” value in the assay with IL-2RB was “Blocker”.

B5: M10-1275: anti-CD122 IgG4 antibody of the M10-1275 class tested in Example 4; APE number not stated (antibody, V domains shown)
VH: DVQLQQSGAELARPGASVKLSCTVSGFNFKDSLMHWVTQGPERGLRWIGWIDSENGETEYAPGFQDKATITADTSSSTVYLHLSSLTSEDTAIYYCARGGPWFLSYWGPGTTLTVSS
VL: DIVLTQTPATLSVTPGDSVSLSCRASQIISNNLHWYQQKSHESPRLLIIYGLQSISGIPYRFSGRRSGTDFTLNINSVEIEDFGMYFCQQSNNWPWTFGGGTKLDIRR
For the molecule B5, the “blocking IL-2 and IL-15” value in assay [2] is reported as “better than upadacitinib”.

B6: APE12705: M10-1275 series anti-CD122 antibody (chimeric in Table 3), VH SEQ ID NO: 1, VL SEQ ID NO: 25 (antibody, V domains shown)
VH: B5 VH
VL: B5 VL
On to B6, for which, in the assay with IL-2RB, the “Blocking (IL-2 down)” value is reported as “Partial”.

B7: APE15170: M10-1275 series anti-CD122 antibody, VH SEQ ID NO: 23, VL SEQ ID NO: 35 (antibody, V domains shown)
VH: EVQLVQSGAEVKKPGATVKISCKVSGFNFKESLIHWVQQAPGKGLEWMGWIDNEAGETEYAPGFQDRVTITADTSTDTAYMELSSLRSEDTAVYYCARGGPWFLSYWGQGTTVTVSS
VL: EIVMTQSPATLSVSPGERATLSCRASQIISNNLHWYQQKPGQAPRLLIIYGLQSISGIPARFSGSRSGTEFTLTISSLQSEDFAVYFCQQSNNFPWTFGQGTKLEIKR
modifications: IgG4P format
Consider B7, for which the Kd with Cynomolgus IL-2Rβ amounted to 0.00487 nM; with Human IL-2Rβ, 0.0128 nM.

B8: APE15446: M10-1275 series anti-CD122 antibody, VH SEQ ID NO: 24, VL SEQ ID NO: 35 (antibody, V domains shown)
VH: B7 VH
VL: B7 VL
Regarding B8, the equilibrium dissociation constant (Kd) in the assay with Cynomolgus IL-2Rβ came to 0.00415 nM; with Human IL-2Rβ, 0.0107 nM.

The values above are taken from patent US20260265385A1, “CD122 BINDING AGENTS AND METHOD OF USING SAME” (AnaptysBio, Inc., priority 2022, published 2026).
